Literature values as cited in patent US7625865B2, “Insulin highly respirable microparticles” (Universita Degli Studi Di Parma, priority 2004, dated 2009).

Experiments:
[1] = nebulization versus direct instillation of an acidic insulin solution
[2] = rats
[3] = intratracheal instillation

Substance: insulin
- absorbed fraction, aerosolized insulin versus instilled insulin [1]: 10 fold
- absorption of insulin [2]: rapid absorption
- bioavailability of formulation at pH 3 versus pH 7 [3]: greater bioavalability
